Experimental data as given in US20090023895A1.

Target: HLA-A2 molecule (a product of the HLA-A*0201 gene) (human), A*02:0

| Binder | -log Kd (Binding Experiment Data) |
| --- | --- |
| YLEEHPSAG (modifications not checked) [SEQ ID NO: 21 peptide] | 5.08 -log Kd |
| WMACHSAAF (modifications not checked) [SEQ ID NO: 30 peptide] | 5.79 -log Kd |
| YLEENPSAG (modifications not checked) [SEQ ID NO: 26 peptide] | 4.9 -log Kd |
| IFLARSALI (modifications not checked) [SEQ ID NO: 35 peptide] | 5.94 -log Kd |
